Test results as given in article PMC12297659, “In situ structure of the mouse sperm central apparatus reveals mechanistic insights into asthenozoospermia” (Cell Research, 2025).

B1: SPAG16 (natural protein, mouse (endogenous in sperm), UniProt Q8K450 1-639, looked up)
chain: MAAPSGVPPLRVLEELGIGLSPTGEVTEAVTSEGAYYLEQVTITETSEDECEYEEIPDDNFSIPEGEEDLEKAIHIIGEQARDIHILEQQTILPARNVMQEAIEDFLCNFLIKMGMTRTLDCFQAEWYELIQKKGSDFKGLGNVPDVYSQVMLLETENKNLKKELKHFKQAAEKAKEDLLRTQKERDFHRMHHKRIVQEKNKLIADLKGLKLHYASYEPTIRVLHEKHHALLKEKMLTSLERDRAVGKISGLQATLKNIDMGHIQVPVIKGSYESASITRESGDRAGHSCEKENSSEGPTQKSLREAREEVGYKSKLKNEKKDSEFPVDMQPDPNVTSCTENVSAAKFDYKLNNIFRLHELPVSCIVMHPCRDYLISCSEDRLWKMVGLPQGNVLLTGSGHTDWLSGCCFHPSGSKLATSSGDSTIKLWDLNKGECTLTLEGHNHAVWSCTWHSCGDFVASASLDMTSKIWDVNSERCRYTLYGHTDSVNSIEFFPFSNILLTASADKTLSVWDARTGKCEQSLYGHMHSVNDATFTPRGHIIASCDARGVTKLWDFRKLIPIVSIDVGPSSGNEVNFDQSGRVLAQASANGIIHLLDLKSGQIHKLVGHESEVHSVVFSHLGENLYSGGSDGTIRLWI
notes: SPAG16, mouse, with a coiled-coil domain and a C-terminal β-propeller domain; Adjacent copies dimerise through the coiled-coil domain; also called PF20 homolog; source: endogenous, in intact mouse sperm (cryo-FIB lamellae)
B2: CFAP70 (natural protein, mouse (endogenous in sperm), UniProt D3YVL2 1-1141, looked up)
chain: MDQTSSTTKIVHITVTNGYDLKGFKGDTPVTFVRAEFNQTVLGDSSKVTVSPEGTAKYNFTSNIDLSPDGGGALDDLAHKPLFLTVTEVLPKEKKQKDEKTLILGQAVVDLLPLLEGEESFETTVPLHPVPGSPLETPLPGSKQCSLDVKVFVAEPLLTPAQVSASNLLKVTLEAAYSVPESFIPVGPQQNYMVGLQVPSVGEKDYTMIFKNGNLKLGGEKEPVPRPKKWPIANILAPGASNIPDEFIVGGPYEEEEGELNHPEDREFRNQAECTKKRIVWDLESRCFLHPFAVASFQKRIADCRLWPVEITRVPLVVMPKAKPGKLEKIDDENQLSFHGVAYINMVPLLYPGVKKIRGAFHVYPYLDGTVFEKTKCLFSLFRDTGHHLVQNNKAGGLNSPLSKPLSKNLKEEKPGKDKDTEGRPRLGELQAPSIKSQSSDTPLESEAPLSHNLEGQQYIEAGTYIVLEIQLEKALVPKRMPEELARRVKEMIPPRPPLTRRTGGAQKAVSDYHTQIKSISRAILNEYYRMFGKQGPKLESDIDNETMEERKCQLNYELNCSGKYFAFKEQLKHAVVKIVREKYLKTTAFESQEELQTFISELYVFLVDQMHVALNQAVPDDVPSSTSTIQTSSEQLRLFAFEAEVNEKFEIAAMYYEERLVREPQNLENWLDYGAFCLLTEDNIKAQECFRKALSLNESHVDSLLLCGVLAILLENYEQAEIFFEDATCLEPTNVIAWTLLGLFYEIQNNDIRMEMAFHEAFKQLQARTLQTKLKSTVTIENMEEGVKVEPSFGPWGVVQESTTAIKTEGLSGMRPQSSHQLSPHTNMELHPQPQGPNTALSSLDEFLEESPKAQSESQEPMATGQPLEPSLVQRSSNALLKELTSKKDISKCQDSSAFSPPTQHVIAQPPVTIFMETIRFLMKVNAVQFVHRVLAHELLCPQGGPSCEYYLVLAQTHLLKKDFAKTEEYLQQAAQMDYLNPNVWGVKGHLYFLSGNHAEAKECYERTISFVVDASEMHFIFLRLGHIYLEEKEYENAKRTYMHACKRSPSCLTWLGLGIACYRLEELTEAEDALSEANALNNCNAEVWAYLALVCLKVGRQLEAEQAYKYTIKLKLKDQALLEEIHTVQEMVGFGNPSF
notes: CFAP70, mouse; The CFAP70 dimer was predicted with AlphaFold2 Multimer before fitting; source: endogenous, in intact mouse sperm (cryo-FIB lamellae)

Key:
Test in all cases: cryo-EM structure; in situ cryo-electron tomography with subtomogram averaging of about 200 nm cryo-FIB lamellae of wild-type mouse sperm; local maps of 5.5 Å to 18 Å; AlphaFold2 models fitted into the density
[1] = target: GMCL1 (BTBD16) (mouse (endogenous in sperm)) (UniProt Q920G9)
[2] = target: SPATA17 (mouse (endogenous in sperm)) (UniProt Q9D552)
[3] = target: the molecule itself

SPATA17 (mouse (endogenous in sperm)), sequence (Q9D552 whole entry): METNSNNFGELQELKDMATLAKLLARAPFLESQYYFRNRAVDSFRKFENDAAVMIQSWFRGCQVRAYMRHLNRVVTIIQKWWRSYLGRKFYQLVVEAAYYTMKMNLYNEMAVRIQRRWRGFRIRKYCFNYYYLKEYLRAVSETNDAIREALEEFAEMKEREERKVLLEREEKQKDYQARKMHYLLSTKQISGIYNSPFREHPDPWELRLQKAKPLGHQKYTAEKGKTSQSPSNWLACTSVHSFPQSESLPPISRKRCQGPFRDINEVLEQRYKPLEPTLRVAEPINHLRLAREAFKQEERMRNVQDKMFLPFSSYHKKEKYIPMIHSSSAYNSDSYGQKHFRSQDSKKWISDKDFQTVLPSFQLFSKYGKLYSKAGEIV

Molecule | stoichiometry N [3] | also measured
GMCL1 (BTBD16) (from UniProt Q920G9 1-524) (natural protein) | – | stoichiometry N [1]: 2
calmodulin (CaM) (from UniProt P0DP26 1-149) (natural protein) | – | stoichiometry N [2]: 3
B1 | 2 | –
B2 | 2 | –
